Target: the molecule itself
Test: SEC-MALS; gel filtration coupled with multi-angle light scattering

B1: REXO2, N-terminal-truncated (Δ28aa), wild type (enzyme, human, UniProt Q9Y3B8 29-237, looked up)
chain: GGAAMAAGESMAQRMVWVDLEMTGLDIEKDQIIEMACLITDSDLNILAEGPNLIIKQPDELLDSMSDWCKEHHGKSGLTKAVKESTITLQQAEYEFLSFVRQQTPPGLCPLAGNSVHEDKKFLDKYMPQFMKHLHYRIIDVSTVKELCRRWYPEEYEFAPKKAASHRALDDISESIKELQFYRNNIFKKKIDEKKRKIIENGENEKTVS
notes: human REXO2 (oligoribonuclease, mitochondrial), lacking the N-terminal 28 residues (Δ28aa); Crystallised with an RNA oligonucleotide and Ca2+; also called WT; wild-type REXO2; not shown: 6x His-SUMO, N-terminal, cleaved
- stoichiometry N: 2

— article PMC7261184, “Human REXO2 controls short mitochondrial RNAs generated by mtRNA processing and decay machinery to prevent accumulation of double-stranded RNA” (Nucleic Acids Research, 2020)
